Consider nine substances from patent publication US20200024330A1.

Where only a bound is given, the exact number is not on record here.

Common to all, as to assay: cell-based or functional assay
The target of experiment [1] is HIV-1 MGRM-C-019 Env (HIV-1).
The target of experiment [2] is HIV-1 Env of isolate MGRM-D-019 (clade D) (HIV-1).
Experiment [3] deals with HIV-1 Env of isolate MGRM-D-012 (clade D) (HIV-1).
The target of experiment [4] is HIV-1 MGRM-C-009 Env (HIV-1).
Experiment [5] deals with HIV-1 92UG005 envelope glycoprotein (Env) on pseudovirus (HIV-1).
In experiment [6] the target is HIV-1 Env of pseudovirus 6535.3 (Acute), clade B (HIV-1).
Experiment [7] concerns the target HIV-1 MGRM-A-008 envelope glycoprotein (Env) (HIV-1).
In experiment [8] the target is HIV-1 MGRM-F1-004 Env (pseudovirus) (HIV-1).
The target of experiment [9] is HIV-1 92RW008 envelope glycoprotein (Env) (HIV-1).
Experiment [10] concerns the target HIV-1 MGRM-C-008 Env (HIV-1).
For experiment [11], the target named is HIV-1 92RW021 envelope glycoprotein (Env) on pseudovirus (HIV-1).
The target in experiment [12] is HIV-1 93MW959 envelope glycoprotein (Env) on pseudovirus (HIV-1).
For experiment [13], the target named is HIV-1 92BR020 envelope protein (Env) on pseudovirus (HIV-1).
Experiment [14] has as its target HIV-1 93UG077 envelope glycoprotein (Env) (HIV-1).
Experiment [15] has as its target HIV-1 Env of isolate MGRM-AE-006 (CRF01_AE), on pseudovirus (HIV-1).
Experiment [16] has as its target HIV-1 Env of isolate MGRM-AG-011 (CRF_AG), on pseudovirus (HIV-1).
In experiment [17] the target is HIV-1 Env of isolate MGRM-Chronic-B-003 (HIV-1).
The target of experiment [18] is HIV-1 Env of isolate 92UG114 (HIV-1).
Experiment [19] concerns the target HIV-1 Env of isolate MGRM-G-024 (HIV-1).
Experiment [20] addresses HIV-1 Env of isolate MGRM-C-020 (HIV-1).
The target of experiment [21] is HIV-1 JR-CSF Env K168A (HIV-1 (isolate JR-CSF)) (UniProt P20871).
The target of experiment [22] is HIV-1 Env of isolate MGRM-D-026 (subtype D), on pseudovirus (HIV-1).
The target of experiment [23] is HIV-1 JR-CSF Env N188A (HIV-1 (isolate JR-CSF)) (UniProt P20871).
Experiment [24] deals with HIV-1 Env of isolate CAAN.A2 (HIV-1).
For experiment [25], the target named is HIV-1 Env of isolate SC422661.8 (HIV-1).
The target in experiment [26] is HIV-1 Env of isolate MGRM-AE-004 (CRF01_AE), on pseudovirus (HIV-1).
The target of experiment [27] is HIV-1 Env of isolate 93TH305 (pseudovirus) (HIV-1 isolate 93TH305, subtype B).
Experiment [28] has as its target HIV-1 Env of isolate MGRM-C-017 (HIV-1).
For experiment [29], the target named is HIV-1 JR-CSF Env L125A (HIV-1 (isolate JR-CSF)) (UniProt P20871).
Experiment [30] addresses HIV-1 Env of isolate MGRM-C-013 (HIV-1).
For experiment [31], the target named is HIV-1 MGRM-C-026 envelope glycoprotein (Env) on pseudovirus (HIV-1).
The target of experiment [32] is HIV-1 VLGCB3 Env (pseudovirus) (HIV-1).
The target of experiment [33] is HIV-1 MGRM-Chronic-B-023 Env (pseudovirus) (HIV-1).
For experiment [34], the target named is HIV-1 THR0.18 Env (pseudovirus) (HIV-1).
The target in experiment [35] is HIV-1 CAAN.A2 Env (pseudovirus) (HIV-1).
The target in experiment [36] is HIV-1 MGRM-Chronic-B-020 Env (pseudovirus) (HIV-1).
In experiment [37] the target is HIV-1 93TH305 Env (pseudovirus) (HIV-1).
The target of experiment [38] is HIV-1 Env of isolate MGRM-C-019 (pseudovirus) (HIV-1 isolate MGRM-C-019, subtype C).
Experiment [39] has as its target HIV-1 Env of isolate MGRM-F1-018 (HIV-1).
The target of experiment [40] is HIV-1 Env of isolate MGRM-C-001 (pseudovirus) (HIV-1 isolate MGRM-C-001, subtype C).
For experiment [41], the target named is HIV-1 JRCSF envelope glycoprotein (Env) on pseudovirus (HIV-1) (UniProt P20871).
The target of experiment [42] is HIV-1 Env of isolate MG RM-D-001 (subtype D) (HIV-1).
Experiment [43] concerns the target HIV-1 Env of isolate 92UG001 (subtype D) (HIV-1).

Turning to 2F5 (antibody), the half-inhibitory concentration (IC50) in experiment [1], in experiment [4] and in [10] was > 50 µg/mL throughout. For the same substance, the IC50 (µg/ml), pseudovirus neutralization in [2] was 0.14 µg/mL; in experiment [3], 1.7 µg/mL; in experiment [6], 2.76 µg/mL; in [7], > 50 µg/mL; in experiment [8], 4.31 µg/mL; in experiment [9], 10.4 µg/mL. Moreover, the IC50 (µg/ml), pseudovirus neutralization was 4.16 µg/mL in experiment [11], > 50 µg/mL in experiment [12] and 3.3 µg/mL in experiment [14]. In addition, the IC90 (pseudovirus neutralization) in experiment [5] is > 50 µg/mL. Besides, the neutralization IC50 in experiment [13] was > 50 µg/mL.
On to 1495_C14 (PGC14) (antibody), for which the IC50 in experiment [1] was 12 µg/mL; in experiment [4] it was > 50 µg/mL; in experiment [10], > 50 µg/mL. Also, the IC50 (µg/ml), pseudovirus neutralization in [2] was > 50 µg/mL; in [3], > 50 µg/mL; in experiment [6], 35 µg/mL; in [7], > 50 µg/mL; in experiment [8], > 50 µg/mL; in experiment [9], 37 µg/mL. The IC50 (µg/ml), pseudovirus neutralization in [11], in [12] and in [14] was > 50 µg/mL throughout. In experiment [13], this substance registered a neutralization IC50 of 0.637 µg/mL.
In the case of 5114_A19 (PGT-128) (antibody), the IC50, single-round pseudovirus neutralization in [15] was 0.044 µg/mL; in experiment [16], 3.93 µg/mL; in experiment [26], > 50 µg/mL. The IC50 in experiment [17] turned out to be 0.007 µg/mL; in experiment [18] it was 0.083 µg/mL; in [20], 5.85 µg/mL; in experiment [24], 1.48 µg/mL; in [25], 1.58 µg/mL; in experiment [28], 1.06 µg/mL. For the same substance, the IC50 in [30] was > 50 µg/mL. The IC50, pseudovirus neutralization in experiment [19] is 0.095 µg/mL; in [22], > 50 µg/mL. Besides, the Fold IC50 increase relative to wild-type turned out to be 1.1 fold in [21], 1.3 fold in experiment [23] and 2.9 fold in experiment [29]. Also, the IC50 (µg/mL) neutralization in [27] was 0.006 µg/mL.
Take 5136_H01 (PGT-131) (antibody): the IC50, single-round pseudovirus neutralization in experiment [15] was 0.026 µg/mL; in [16], > 50 µg/mL; in experiment [26], > 50 µg/mL. Moreover, the IC50 in experiment [17], in experiment [18], in [20], in [24], in experiment [25] and in experiment [28] was > 50 µg/mL each time. For the same substance, in [30], the IC50 was > 50 µg/mL. Besides, the IC50, pseudovirus neutralization is 10.7 µg/mL in experiment [19] and > 50 µg/mL in experiment [22]. Further, the Fold IC50 increase relative to wild-type in [21] worked out at 1.7 fold; in [23] it was 0.9 fold; in experiment [29], 2.5 fold. The same substance returned an IC50 (µg/mL) neutralization in experiment [27] of 0.016 µg/mL.
Turning to 5141_B17 (PGT-126) (antibody), the IC50 (ug/ml), neutralizing activity in [31] is 0.0076 µg/mL; in experiment [5] it was 0.0181 µg/mL; in experiment [41], 0.0061 µg/mL. In addition, the IC50, pseudovirus neutralization was 0.007 µg/mL in experiment [32]; > 50 µg/mL in [33]; > 50 µg/mL in experiment [34]; > 50 µg/mL in experiment [19]; 0.273 µg/mL in experiment [35]; 0.021 µg/mL in experiment [36]. In experiment [37], this substance displayed an IC50, pseudovirus neutralization of 0.013 µg/mL. The Fold IC50 increase relative to wild-type amounted to 0.7 fold in experiment [21], 0.8 fold in experiment [23] and 1.2 fold in experiment [29]. In addition, the IC50 (µg/mL) neutralization in [38] was 0.005 µg/mL; in experiment [40], > 50 µg/mL. In experiment [39], this substance returned an IC50 of 14.9 µg/mL. Moreover, the IC50 (µg/mL), pseudovirus neutralization in [42] is 0.084 µg/mL; in experiment [43], > 50 µg/mL.
In the case of 5147_N06 (PGT-130) (antibody), the IC50, single-round pseudovirus neutralization is 0.009 µg/mL in [15], > 50 µg/mL in [16] and 2.43 µg/mL in experiment [26]. Besides, the IC50 in experiment [17], in [18], in experiment [20], in [24], in experiment [25] and in experiment [28] was > 50 µg/mL throughout. For the same substance, the IC50 in [30] was > 50 µg/mL. Moreover, the IC50 (ug/ml), neutralizing activity is 0.0173 µg/mL in [31], 0.474 µg/mL in experiment [5] and 0.0089 µg/mL in experiment [41]. Also, the IC50, pseudovirus neutralization in [19] is 5.84 µg/mL; in [22], > 50 µg/mL. In addition, the Fold IC50 increase relative to wild-type in experiment [21] turned out to be 1.2 fold; in [23] it was 1 fold; in experiment [29], 2.5 fold. Also, the IC50 (µg/mL) neutralization in [27] turned out to be 0.021 µg/mL.
Take 5329_C19 (PGT-136) (antibody): the IC50, single-round pseudovirus neutralization in experiment [15], in [16] and in [26] was > 50 µg/mL each time. For the same substance, the IC50 in [17], in experiment [18], in experiment [20], in experiment [24], in [25] and in experiment [28] was > 50 µg/mL throughout. Besides, the IC50 in [30] is > 50 µg/mL. Moreover, the results for the IC50, pseudovirus neutralization in experiment [19] and in experiment [22] were 0.152 µg/mL and > 50 µg/mL, respectively. In addition, the IC50 (µg/mL) neutralization in [27] is 20.2 µg/mL.
Regarding 5343_B08 (PGT-135) (antibody), the IC50, single-round pseudovirus neutralization in [15], in experiment [16] and in experiment [26] was > 50 µg/mL each time. Besides, the IC50 is > 50 µg/mL in experiment [17]; 1.29 µg/mL in experiment [18]; > 50 µg/mL in experiment [20]; 5.15 µg/mL in experiment [24]; 21.8 µg/mL in [25]; > 50 µg/mL in experiment [28]. For the same substance, the IC50 in experiment [30] was > 50 µg/mL. For the same substance, the IC50, pseudovirus neutralization was 0.062 µg/mL in experiment [19] and > 50 µg/mL in experiment [22]. Further, the values for the Fold IC50 increase relative to wild-type in experiment [21], in experiment [23] and in experiment [29] were 0.4 fold, 0.4 fold and 0.9 fold, respectively. The IC50 (µg/mL) neutralization in experiment [27] was > 50 µg/mL.
Take 5345_I01 (PGT-137) (antibody): the IC50, single-round pseudovirus neutralization in experiment [15], in experiment [16] and in [26] was > 50 µg/mL each time. Besides, the 50% inhibitory concentration (IC50) in experiment [17], in experiment [18], in [20], in [24], in experiment [25] and in experiment [28] was > 50 µg/mL in each case. For the same substance, the IC50 in [30] is > 50 µg/mL. Also, the figures for the IC50, pseudovirus neutralization in [19] and in experiment [22] were 0.051 µg/mL and > 50 µg/mL, respectively. In addition, the IC50 (µg/mL) neutralization in [27] is > 50 µg/mL.

What is called IC50 is the concentration that inhibits the measured activity by half. Read a high IC50 as lower potency.
